These results are taken from the nanobody polyreactivity screen of Harvey et al. (2022).

The data set is described as follows: yeast display, Sf9 membrane polyspecificity reagent, FACS + sequencing; frameworks hold sequencing errors. Summed up: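 After 36–48 hours of galactose induction, yeast (Saccharomyces cerevisiae BJ5465) displaying a synthetic nanobody library were stained at 4 °C for 1 hour with 10% biotinylated, detergent-solubilized Sf9 membrane reagent. Streptavidin microbeads enriched the stained cells before FACS sorting into low and high (top ~1%) gates on anti-HA and streptavidin fluorescence. Each clone's polyreactivity label reflects its gate of origin.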
“QVQLVESGGGLVQAGGSLRLSCAASGNTFYVYTMGWYRQAPGKERELVAAISSTGDRTYYADSVKGRFTISRDYAKNTVYLQMNSLKPEETAVYYCAARLYRGYRGYYYWGQGTQVTVSS”: the “polyreactivity (PSR sort gate)” value was “high polyreactivity”.

Consider “QVQLVESGGGLVQAGGSLRLSCAASGNTFYYNAMGWYRQAPGKEREFVAAITSSGGGTYYADSVKGRFTISRDNAKNTVYLQMNSLKPEDTAVYYCAADATYRKQVIFYYWGQGTQVTVSS”, for which the “polyreactivity (PSR sort gate)” value is listed as “low polyreactivity”. Consider “QVQLVESGGGLVQAGGSLRLSCAASGNTIIDYAMGWYRQPPGKERELVASITSGGGSTYYADSVKGRFTISRDNAKNTVYLQMNSLKPVDTAVYYCAAERYYSEAIFRSYDYWGQGTQVTVSS”, for which the “polyreactivity (PSR sort gate)” value was “low polyreactivity”.

As for “QVQLVESGGGLVQAGGSLRLSCAASGNTLASYAMGWYRQAPGKEREFVAAITNRSGSTYYADSVKGRFTISRDNAKNTVYLQMNSLKPEDTAVYYCAARYGRRSGQMGYWGQGTQVTVSS”, the “polyreactivity (PSR sort gate)” value was “high polyreactivity”.

For “QVQLVESGGGLVQAGGSLRLSCAASGNTLGYNAAMGWYRQAPGKERELVAAITENGGSTYYADSVKGRFTISRDNAKNTVYLQMNSLKPEDTAVYYCATAPYYYRGAYGFEYWGQGTQVTVSS”, the “polyreactivity (PSR sort gate)” value is “low polyreactivity”. “QVQLVESGGGLVQAGGSLRLSCAASGNTLIQYAMGWIIQAPGKEREVLAGISGTDDSTYYADSVKGRFTISRDNAKNTVYFQMTSLKPEDRSVYYCATREWYDKYPNIYVSFDYWGQGTQVTVSS”: the “polyreactivity (PSR sort gate)” value was “low polyreactivity”. As for “QVQLVESGGGLVQAGGSLRLSCAASGNTLQVYAMGGYRPAPGKERELVARLTGGGRTSYADSVKGRFTISRDNAKTTVYLQMHSLKPEDTAVYYCATVYYGHIVLYDYWGQGTQVTVSA”, the “polyreactivity (PSR sort gate)” value is given as “low polyreactivity”. The value for “QVQLVESGGGLVQAGGSLRLSCAASGNTQGYNAAMGWYRQAPGKERELVAAINSGGGSTYYADSVKGRFTISRDNAKNTVYLQMNSLKPEDTAVYYCAARYRSRYDYYYDRDYWGQGTQVTVSS” was “low polyreactivity”. For the sequence “QVQLVESGGGLVQAGGSLRLSCAASGNTSGHNAMGWYRQAPGKERELVADIRTGDSTNYADSVKGRFTISRDNAKNTVYLQMNSLKPEDTAVYYCAADSAYDVTSYGYWGQGTQVTVSS”, the “polyreactivity (PSR sort gate)” value is given as “low polyreactivity”. Regarding “QVQLVESGGGLVQAGGSLRLSCAASGPIFHPYAMGWYRHAPGKERELVAAITNSGGITYADSVKGRFTISRDNAKNTVYLQMNSLKPEDTAVYYCNTATNRFHYKYRKPYDYWGQGTQVTVSS”, the “polyreactivity (PSR sort gate)” value is on record as “low polyreactivity”. Turning to “QVQLVESGGGLVQAGGSLRLSCAASGPIFKRNAMGWYRQAPGKERELVAAISGSGGRTYYADSVKGRFTISRDNAKYTVYLQMNSLKREDTAVYYCNAGGSYYARGMDYWGQGTQVTVSS”, the “polyreactivity (PSR sort gate)” value is “high polyreactivity”. In the case of “QVQLVESGGGLVQAGGSLRLSCAASGPIFVENAMGRNRPAPGKERELVAAISGGGSTDYADSVKGRFTISRDNAKNTVYLEMNSLKPVYTAVYFCNARQVFTTAGGEMDYWGQGTQVTVSS”, the “polyreactivity (PSR sort gate)” value is reported as “low polyreactivity”. As for “QVQLVESGGGLVQAGGSLRLSCAASGPIIDFYAMGWSRKAPGKERELVAAISWRGGSTYYADSVKGRFTISRDNAKNSVYLQMNSLKPEDTAVYYCANRFGPRYYWGQGTQVTVSS”, the entry is “low polyreactivity”; as for “QVQLVESGGGLVQAGGSLRLSCAASGPISAIYDMGWYRQAPGKEREVVAAISGGTSTYYADSVKGRFTISRDNAKNTVYLQMNSLKPEDTAVYYCNAEASSYHGVEDEYDYWGQGTQVTVSS”, “low polyreactivity”. As for “QVQLVESGGGLVQAGGSLRLSCAASGPISRYNTMGWYRQAPGKERELVAAISYRGGSTYYADSVKGRFTISRDNAKNTVYLQMNSLKPEDTAVYYCNKVRSSVRSGGYGYWGQGTQVTVSS”, the entry is “high polyreactivity”; as for “QVQLVESGGGLVQAGGSLRLSCAASGPTFTPYAMGWYRPAPGKERELVAAISGGGSTNYADSVKGRFTISRDNAKNTVFLQMNSLKPEDTAVYYCAKRVYRGRRMDYWGQGTQVTVSS”, “high polyreactivity”. In the case of “QVQLVESGGGLVQAGGSLRLSCAASGRFFSWNAMGWYRPAPGTERELVAAISSSVGSTYYADSVKGRFTISRDNAQNTVYFQMNSRKPEDTAVYYCNAVPIGQWAYDYWGQGTQVTVSS”, the “polyreactivity (PSR sort gate)” value is “high polyreactivity”. As for “QVQLVESGGGLVQAGGSLRLSCAASGRGYYAMGWYRQAPGKERELVAAISRGGNTKYADSVKGRFTISRDNAKNTVYLQMNSLKPEDTAVYYCYTDWADYYYYTDYDYWGQGTQVTVSS”, the “polyreactivity (PSR sort gate)” value is reported as “high polyreactivity”.

Take “QVQLVESGGGLVQAGGSLRLSCAASGRICGYNSMGWYRQAPGKERELVAAISSSGGSTYYADSVKGRFTISRDYATNTVYVQMNSLKREATAVYYCAARIGYRSWAWDAYEYCGQGTQVTVSS”: the “polyreactivity (PSR sort gate)” value is “low polyreactivity”. On to “QVQLVESGGGLVQAGGSLRLSCAASGRIFADNGMGWYRQAPGKERELVASITSSGGDTYYADSVKGRFTISRDNAKNTVYLQMNSLKPEDTAVYYCATECSWLFYGVWVVTFGDDYWGQGTQVTVSS”, for which the “polyreactivity (PSR sort gate)” value is given as “low polyreactivity”. Take “QVQLVESGGGLVQAGGSLRLSCAASGRIFADNGMGWYRQAPGKERELVASITSSGGDTYYADSVKGRFTISRDNAKNTVYLQMNSLKPEDTAVYYCATEFSWLFYGVWVVTFGDDYWGQGTQVTVSS”: the “polyreactivity (PSR sort gate)” value was “low polyreactivity”. As to “QVQLVESGGGLVQAGGSLRLSCAASGRIFADYAMGWYRQAPGKERELVATITSGDRTYYADSVKGRFTTSRDNAKNTVYLQMNSLKPEDTAVYYCAAYKPWYVGLYPWYDYWGQGTQVTVSS”, the “polyreactivity (PSR sort gate)” value was “low polyreactivity”. “QVQLVESGGGLVQAGGSLRLSCAASGRIFAFNAMGWYRQAPGKERELVADITSSGVNTYYADSVKGRFTISRDNAKNTVYLQMNSLKPEDTAVYYCAARSYLRWWVGMEYWGQGTQVTVSS”: the “polyreactivity (PSR sort gate)” value is reported as “low polyreactivity”. With “QVQLVESGGGLVQAGGSLRLSCAASGRIFAFYAMGWYRPAPGKEREFVAAITYSGGNTNYADSVKGRFTISRDNAKNTVYIEMNSLKPEDTPVYYCAADLVYGVYYQEDYWGQGTQVTVSS”, the “polyreactivity (PSR sort gate)” value is “low polyreactivity”. The value for “QVQLVESGGGLVQAGGSLRLSCAASGRIFAFYAMGWYRQAPGKEREFVAAISWSGGSTYYADSVKGRFTISRDNAKNTVYLQMNSLKPEDTAVYYCAARSRVRHSGMNYWGQGTQVTVSS” was “high polyreactivity”. Consider “QVQLVESGGGLVQAGGSLRLSCAASGRIFAFYAMGWYRQAPGKERELVAAISWSGGSTYFADSVKGRFTISRDNAKNTVYLQMHSLIPEDTAVYYCAAYRTRGSAYPYDYWGQGTQVTVSS”, for which the “polyreactivity (PSR sort gate)” value is recorded as “high polyreactivity”.

Turning to “QVQLVESGGGLVQAGGSLRLSCAASGRIFAGYAMGWYRQAPGKERELVASIRYSGGSTYADSVKGRFPISRDNAKNTVYLQMNSLKAEDTAVYYCAADIRQFYVGWGSTLWYGHDYWGQGTQVTVSS”, the “polyreactivity (PSR sort gate)” value is given as “low polyreactivity”. With “QVQLVESGGGLVQAGGSLRLSCAASGRIFAGYVMGWYRQAPGKERELVAAISWRGGRTYYADSVKGRFTISRDNAKNTVYLQMNSLKPEDTAVYYCNAPYAVGYPADDYWGQGTQVTVSS”, the “polyreactivity (PSR sort gate)” value is reported as “high polyreactivity”. With “QVQLVESGGGLVQAGGSLRLSCAASGRIFAGYVMGWYRQAPGKERELVAAITSGGGTDYADSVKGRFTISRDNAKNTVYLQMNSQKPEDTAVYYCAADPYYSWFGWDYEYWGQGTQVTVSS”, the “polyreactivity (PSR sort gate)” value is “high polyreactivity”. Turning to “QVQLVESGGGLVQAGGSLRLSCAASGRIFAHNAMGWYRQAPGKERELVAAINWSGGSTYYADSVTWRFTISRDNAKNTVYLQMNSLKPEDTAVYYCNNRYIHRSRAGYDYWGQGTQVTVSS”, the “polyreactivity (PSR sort gate)” value is recorded as “low polyreactivity”. On to “QVQLVESGGGLVQAGGSLRLSCAASGRIFAHYAMGWYRQAPGKERELVAAISSGGSTYYADSVKGRFTISRDNEKNTVYLQINSLKPEDTAVYYCAADYLYPPYYEFYYWGQGTQVTVSS”, for which the “polyreactivity (PSR sort gate)” value was “low polyreactivity”. On to “QVQLVESGGGLVQAGGSLRLSCAASGRIFAHYAMGWYRQAPGKERELVADIRQSGGRTYYADSVKGRFTISRDNAKNTVYLKMNSLKPEDTAVYFCATDYGSWGDYSGKYDYWGQGTQVTVSS”, for which the “polyreactivity (PSR sort gate)” value was “low polyreactivity”. For the sequence “QVQLVESGGGLVQAGGSLRLSCAASGRIFAHYAMGWYRQAPGKEREMVAAISRRGGSTYYAESVKGRFTISRDNAKNTVYLQMNRLKPEDTAVYYCNAVTRSSLSWFFGYDYWGQGTQVTVSS”, the “polyreactivity (PSR sort gate)” value was “high polyreactivity”. In the case of “QVQLVESGGGLVQAGGSLRLSCAASGRIFALYAMGGYRQAPGKERELVAAISIRAGSTYYADSAKGRFTISRDNAKNTVYLQMNSLKPEDTAVYYCATKGWVSTSYYYRPYGYWGQGTQVTVSS”, the “polyreactivity (PSR sort gate)” value is “high polyreactivity”.

In the case of “QVQLVESGGGLVQAGGSLRLSCAASGRIFALYAMGWYRQAPGKERELVASINGSSGSTYYADSVKGRFTISRDTAKNTVYLQMNSLKPEDTAVYYCAKKYYGVKFYWGQGTQVTVSS”, the “polyreactivity (PSR sort gate)” value is “low polyreactivity”. On to “QVQLVESGGGLVQAGGSLRLSCAASGRIFANAMGWYRQAPGKERELVAAISTSGGRTYYADSVKGRFTISRDNAKNTVYLQMNSLKPEDTAVYYCAARPHTPPVTSGYNHWGQGTQVTVSS”, for which the “polyreactivity (PSR sort gate)” value is on record as “high polyreactivity”. The value for “QVQLVESGGGLVQAGGSLRLSCAASGRIFAPYAMGWYRQAPGKEREVVAGITRGGITNYADSVKGRFTISRDNAKNTVYLQMNSLKPEDTAVYYCATVVNRRGFYQYYYWGQGTQVTVSS” was “high polyreactivity”. As to “QVQLVESGGGLVQAGGSLRLSCAASGRIFAQNAMGWYRQAPRNERELVAGISYGGGRTYYADSVKGRFTISRDKAKNTVYLQMNSLKPEDTAVYYCAKAVNSPRKYQLGNGYWGQGTQVTVSS”, the “polyreactivity (PSR sort gate)” value was “high polyreactivity”. For the sequence “QVQLVESGGGLVQAGGSLRLSCAASGRIFAQYAMGWYRQAPGKERELVAAISSGGNTYYADSVKGRFTISRDNAKNTVYLQMNSLKPEDTAVYYCAASSRRYLWGFDYWGQGTQVTVSS”, the “polyreactivity (PSR sort gate)” value is “low polyreactivity”. As to “QVQLVESGGGLVQAGGSLRLSCAASGRIFARNAMGWYRPEPGKERELVAGITWSTASTYYADSVKGRFTISLDNAKNTVYLQMNSLKPEDTAVYYCAADSYYYYDYWYVYLYDYWGQGTQVTVSS”, the “polyreactivity (PSR sort gate)” value was “high polyreactivity”.
